Results reported in article PMC10491024 (Cell reports, 2023).

Experiments:
Conditions in all cases: both partners purified
FP6v1-rTTHC = biological target: T1, FP6v1-rTTHC (HIV-1, fusion peptide 512-517); assay: ELISA; plates coated with 2 μg/mL fusion peptide-rTTHC; 2C06 or 2C09 antibody serially diluted from 2 μg/mL, 1 h 37°C; anti-human IgG-HRP
T1 construct: also called shorter peptides
T1 chain: AVGIGA

FP7v1-rTTHC = biological target: T2, FP7v1-rTTHC (HIV-1, fusion peptide 512-518); assay: as above
T2 construct: also called shorter peptides
T2 chain: AVGIGAV

FP8v1-rTTHC = biological target: T3, FP8v1-rTTHC (HIV-1, fusion peptide 512-519 (BG505 …)); assay: ELISA
T3 construct: also called fusion peptide
T3 chain: AVGIGAVF

Binder	binding result (FP6v1-rTTHC)	binding result (FP7v1-rTTHC)	binding result (FP8v1-rTTHC)
N751-2C09.01 IgG (antibody, V domains shown) VH: EVQLVESGEGLVQPGGSLRLSCAASGFTFSSHAMHWVRQAPGKGLEYVSAISSEGGSTYYADSVRGRFIISRDNSKNTLYLQMGSLRAEDMAVYYCARVTGDYNWYFDLWGRGTLVTVSS VL: EIVMTQSPATLSVSPGERATLSCRASQGVSSNLAWYQQKPGQAPRLLIHGASTRATGSPARFSGSGSGTEFTLTISSLQSEDFAVYSCQQYHNWPWTFGQGTKVEIK	binds	binds	binds
N751-2C06.01 IgG (antibody, V domains shown) VH: EVQLVESGGGLVQPGGSLRLSCSASGFTFSSYAMHWVRQAPGKGLEYVSAISGNGDSTYYADSVRGRFTISRDNSKNTLYLQMSSLRAEDTAVYYCVKQAAYCTRTSCYYFDYWGQGTLVTVSS VL: not shown			binds
